The values below come from patent US20250163155A1 (Bristol-Myers Squibb, published 2025).

The target of this assay is T1, cynomolgus LAG-3 (cynomolgus monkey).
T1 construct: whole, on cells; also called cynomolgus LAG-3 on transfected CHO cells
Briefly: flow cytometry on transfected CHO cells and activated cynomolgus T cells. (In flow cytometry, cells or beads pass a laser one at a time.)

Usually EC50 stands for the concentration needed to bring the measured effect to its halfway point. Read a low EC50 as greater potency.

B1: BMS-986016 (antibody, human IgG4 S228P, kappa, V domains shown)
VH: QVQLQQWGAGLLKPSETLSLTCAVYGGSFSDYYWNWIRQPPGKGLEWIGEINHRGSTNSNPSLKSRVTLSLDTSKNQFSLKLRSVTAADTAVYYCAFGYSDYEYNWFDPWGQGTLVTVSS
VL: EIVLTQSPATLSLSPGERATLSCRASQSISSYLAWYQQKPGQAPRLLIYDASNRATGIPARFSGSGSGTDFTLTISSLEPEDFAVYYCQQRSNWPLTFGQGTNLEIKR
notes: also called anti-LAG-3 antibody
In turn, B1 came in with an EC50 of 21.5 to 34.3 nM.
